Experimental data as given in paper PMC7969031.
Blank lines part the entries; values can stand above or below the molecule they belong to.

Legend:
[1] = biological target: Cas2 of the Synechocystis sp. PCC6803 type I-D CRISPR-Cas system, untagged (Synechocystis sp. PCC6803); experiment: crystal structure
[2] = biological target: Cas4 of the Synechocystis sp. PCC6803 type I-D CRISPR-Cas system, untagged (Synechocystis sp. PCC6803); experiment: SEC-MALS
[3] = biological target: Cas1 of the Synechocystis sp. PCC6803 type I-D CRISPR-Cas system, untagged (Synechocystis sp. PCC6803); experiment: crystal structure
[4] = biological target: Cas1 of the Synechocystis sp. PCC6803 type I-D CRISPR-Cas system, untagged (Synechocystis sp. PCC6803); experiment: negative-stain electron microscopy
Cas1 (type I-D) = biological target: T1, Cas1 (type I-D) (Synechocystis sp. PCC6803, UniProt Q6ZEI2 1-325); experiment: EMSA
T1 sequence: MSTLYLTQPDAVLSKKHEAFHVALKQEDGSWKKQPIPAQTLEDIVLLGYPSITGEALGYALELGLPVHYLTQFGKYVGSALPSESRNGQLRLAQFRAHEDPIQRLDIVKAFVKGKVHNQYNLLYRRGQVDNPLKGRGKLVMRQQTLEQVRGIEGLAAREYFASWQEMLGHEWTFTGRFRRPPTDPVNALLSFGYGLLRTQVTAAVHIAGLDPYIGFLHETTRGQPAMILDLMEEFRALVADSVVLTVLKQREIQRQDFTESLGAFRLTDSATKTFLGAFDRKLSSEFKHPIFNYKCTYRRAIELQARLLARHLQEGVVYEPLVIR

[5] = biological target: T2, Cas1 (type I-D);Cas2 (type I-D) (Synechocystis sp. PCC6803;Synechocystis …, UniProt Q6ZEI2;Q6ZEI1 1-325;1-94, |); experiment: EMSA
T2 sequence 1: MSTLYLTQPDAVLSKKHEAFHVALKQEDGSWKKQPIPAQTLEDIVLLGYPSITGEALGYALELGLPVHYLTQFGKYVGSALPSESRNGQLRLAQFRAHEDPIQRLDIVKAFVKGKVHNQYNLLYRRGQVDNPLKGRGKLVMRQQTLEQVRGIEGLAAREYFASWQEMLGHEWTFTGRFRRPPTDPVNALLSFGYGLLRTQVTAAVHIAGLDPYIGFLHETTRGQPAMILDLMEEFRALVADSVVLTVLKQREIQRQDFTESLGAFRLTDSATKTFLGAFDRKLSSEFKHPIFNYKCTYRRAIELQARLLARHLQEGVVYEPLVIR
T2 sequence 2: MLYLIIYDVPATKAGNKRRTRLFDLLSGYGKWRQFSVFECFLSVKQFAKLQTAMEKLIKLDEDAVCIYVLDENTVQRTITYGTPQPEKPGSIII

[6] = biological target: T2, Cas1 (type I-D);Cas2 (type I-D); experiment: X-ray crystal structure
[7] = biological target: T2, Cas1 (type I-D);Cas2 (type I-D); experiment: X-ray crystal structure; remark: listed apart in the source

stoichiometry N [1]: 2
Molecule: Cas2 of the Synechocystis sp. PCC6803 type I-D CRISPR-Cas system, untagged (natural protein)

stoichiometry N (Cas1 per Cas4) [2]: 2
stoichiometry N [3]: 2
stoichiometry N [4]: 2
Molecule: Cas1 of the Synechocystis sp. PCC6803 type I-D CRISPR-Cas system, untagged (natural protein)

B1: dsDNA EMSA substrate (dsDNA)
DNA 1: TGTGCCCCTGGCGGTCGCTTTCTTTTT
DNA 2: AAAAAGAAAGCGACCGCCAGGGGCACA
binding result (Cas1 (type I-D)): binds
binding result [5]: binds

B2: 22-7-7 double-forked prespacer (dsDNA)
DNA 1: TTTTTTTTGTGCCCCTGGCGGTCGCTTTCTTTTTTT
DNA 2: TTTTTTTGAAAGCGACCGCCAGGGGCACATTTTTTT
binding result [6]: binds

B3: 26-5-5 double-forked prespacer (dsDNA)
DNA 1: TTTTTTTGTGCCCCTGGCGGTCGCTTTCAAGTTTTT
DNA 2: TTTTTCTTGAAAGCGACCGCCAGGGGCACAATTTTT
binding result [7]: binds
